Measured values published in the supplement of paper PMC12042874.
± gives the uncertainty stated by the source.

Test: amyloid nucleation score (Sup35N fusion, yeast selection) (log enrichment); library NNK1; higher = more nucleation; inactive = no reads after selection
Method in brief: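 Peptides of 20 random codons fused to Sup35N were expressed in psi-negative yeast, induced 24 hours with 100 μM copper sulfate, then grown 7 days at 30°C on medium lacking adenine and uracil. Input and output plasmid inserts were Illumina-sequenced. Nucleation score is the DiMSum log enrichment of output over input reads, centred on the mode score of non-aggregating sequences, excluding sequences with under 100 input reads. Random libraries had three technical output replicates.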

Row | Substance | amyloid nucleation score
1 | KWVEIITLCMEIWNLYIVCE | -0.048 ± 0.92
2 | PFFRVVY | inactive
3 | NCAFVAS | -0.019 ± 0.34
4 | CTGSVWYAPLWMWWEWLR | 0.498 ± 0.69
5 | ISSECQVICYLLHEFSPASV | 1.35 ± 0.25
6 | ATMSRGFKQ | 0.834 ± 0.36
7 | AFALHSHFLSL | 1.75 ± 0.19
8 | AVSSVVPGTCL | 0.55 ± 0.68
9 | LFFVPMARVW | 0.01 ± 0.54
10 | WSVLCSFRSSSNQAFVFRVQ | -0.827 ± 0.77
11 | GLSTMQCVNICFWSYVTW | 1.37 ± 0.26
12 | TFQLKMWEHVVLPDVSMAST | 0.669 ± 0.48
13 | LYIFGAY | -1.26 ± 0.53
14 | MVHMCWLTME | 0.454 ± 0.25
15 | IVFVLQGRRQ | 0.634 ± 0.88
16 | ILDVKAPR | 0.446 ± 0.64
17 | CDKTYPANSLCLKDFGQLEG | -0.019 ± 0.64
18 | ISPCDIYRHLSIKGQSCDLI | 0.004 ± 0.32
19 | MLGLWIVARLVLSVDSQRVE | inactive
20 | MVDSVMD | -0.21 ± 0.79
21 | SCMTLLRFKRMEDLK | 2.45 ± 0.19
22 | ILGKFFIDLSDI | -1.16 ± 0.43
23 | SLYYGGLQER | -0.02 ± 0.29
24 | HTLTPAHPTNGVVT | -0.871 ± 1.3
25 | GSVCRCSDAPVSFRVGNSVG | -0.078 ± 0.27
26 | FSVYAWGVFFDAVWFSCAVA | 1.29 ± 0.84

Row | Substance | amyloid nucleation score
27 | YSRNNIIHFRFISALLPEEV | 0.683 ± 0.37
28 | SKGFDDESTAGSFFKLMLLY | -1.9 ± 2.4
29 | LSQMSRCNPACAVVPASEMA | 0.376 ± 1.1
30 | WIVHCVEFALYGLGF | 1.33 ± 0.79
31 | CGADVNVWMTIWHYLFIDRG | inactive
32 | VRMVQEMFRRRTLEELAMGA | 0.447 ± 0.68
33 | GIYSFGLCVGDIS | -0.623 ± 0.34
34 | GIGFNHVSHLVKENS | -0.192 ± 0.97
35 | LAWLFYGFEIKL | 0.241 ± 0.9
36 | LVNIHVIQKAFVGTVASSKV | 5.07 ± 0.067
37 | RPGVGAVRSHSAGRMGGYGD | -0.057 ± 1.7
38 | IFYYNRCWLTRYRVICLESI | -1.38 ± 0.51
39 | IYGGRIS | -0.557 ± 0.75
40 | YQVCTFSNNGIWLWRLSIPH | 1.81 ± 0.23
41 | RTRFTDASMVWDANFMSNLY | inactive
42 | TGLLLLIRNICYCLNLQLWG | 0.271 ± 0.53
43 | LQYWEVYSSCRMRVGYYSAD | 1.67 ± 0.13
44 | RFFPWQPCNPHIMPLIFWMP | 0.692 ± 0.82
45 | LFVNFGTLS | 0.391 ± 0.41
46 | INFDRNFF | -0.54 ± 0.31
47 | IMYNCRYWSGVTLHYSVVQH | 1.89 ± 0.16
48 | CNRLIHDMHVCLTNE | inactive
49 | YDHGRWDSTVSGLRDVMLDV | inactive
50 | RGNLGLDLWICSGYRMVMFQ | -0.784 ± 0.3
51 | CPVWELLKDCMCHKNGLFCT | 1.28 ± 0.58
52 | CTVMHELCCRWFELFRRSVR | 1.45 ± 0.63

Row | Substance | amyloid nucleation score
53 | YFWMIPMTGEVHNCPDLAPK | 0.386 ± 0.33
54 | SYFFGACCVGMCRLWNLFYS | 0.857 ± 0.52
55 | THSIF | inactive
56 | LYIFLNEDDRFSMKQGVKGG | 0.546 ± 0.83
57 | GNLLRTSIDRLLYSWSTIVV | -0.187 ± 0.46
58 | EFYSVTIGNWAMNRTHWRVN | 0.461 ± 0.69
59 | DCEGLFI | 0.864 ± 0.74
60 | RDTTTT | 0.088 ± 0.33
61 | LAWLQCRAGETFITWRHQFY | 0.544 ± 0.55
62 | LDVRAIRYILK | -0.252 ± 1.4
63 | LYLLSDNFR | 1.68 ± 0.72
64 | SEWGSQSSGAGSFTMV | -1.35 ± 2.4
65 | RTFFRFKMSPWCINDYIMMR | 0.222 ± 1.2
66 | VWIICQHGG | 4.09 ± 0.11
67 | KNNVDSKHS | 0.021 ± 0.52
68 | FAVSIVSFLRASVVDWVWYT | -0.209 ± 0.66
69 | NLVVQCADGVILSFWDHMVG | 2.43 ± 0.32
70 | EYAVIGKS | -0.186 ± 1
71 | GSYGLDGILDQWTPLHSLGG | 0.64 ± 0.46
72 | VECVSVQRFGAQCLSCYPSW | -0.07 ± 0.55
73 | FRDFWLDNVLNMMVGCAARD | -0.692 ± 1.2
74 | NFCLWHNWYVMSVLERGD | 7.893 ± 0.071
75 | TYYAAMRDGFVYHTKGLMAS | -0.209 ± 1
76 | VWSNMCFLIDSI | -0.491 ± 0.3
77 | FTFSFLYFFQWCHTGAPARF | 0.602 ± 0.73
78 | MVGDARFYAANSG | 1.14 ± 0.79

Row | Substance | amyloid nucleation score
79 | KLPIAGCYRVINCTVRGE | -0.008 ± 0.26
80 | SFVFAVWFW | 0.181 ± 0.83
81 | LGWDDVVY | 0.314 ± 0.85
82 | NADVTCVISGLRKTYCVSDD | 0.577 ± 0.64
83 | CSVMSNARRIWDRMQLNGVK | -0.568 ± 0.33
84 | LPCHWVHVQGHHWLRLDVMC | 0.2 ± 0.64
85 | FDNLIVYVTVYFFLTYAPFV | 1.41 ± 0.26
86 | ALSSVNFFQLL | 4.45 ± 0.12
87 | YFGSLYERGRIIGRRVMR | 0.267 ± 0.32
88 | GSNDPSVLTAVVLMLLKHRG | 2.04 ± 0.35
89 | ALSSAALEYNIPVGSGAFVN | 0.25 ± 1.4
90 | HWVDLVGESNNSISFAVVFC | 4.9 ± 0.079
91 | FDADGHPLKTPLCMGLSCGG | -0.129 ± 1.6
92 | TTSRAWFYL | -0.353 ± 1
93 | VIKFWSQ | 0.536 ± 0.77
94 | KPLILLCHLMGTMSTKCKDM | -0.098 ± 0.26
95 | DCESVWSIKGNKPMLFDRIL | -1.45 ± 1.7
96 | TKGFLSNGFLVWPVCIVILW | 0.387 ± 0.77
97 | ISYGKDNESGCLLHYFHAWV | inactive
98 | ALVALRAY | 0.364 ± 1.2
99 | ELNPMFKTQHWLNSWNIWLL | 2.47 ± 0.089
100 | TASCVIMELPVGTNDKYVWT | 0.296 ± 0.5
101 | LLQMWMEWRVFYYHLFVSAS | 0.085 ± 0.55
102 | SHPNRTCKWLHSSVLRTPVL | 0.313 ± 0.49
103 | RLRWI | -0.057 ± 0.23
104 | KCTVDQTSNIAACTSVGLCI | 5.36 ± 0.093

Row | Substance | amyloid nucleation score
105 | KDHNVGMYLAGENCHLG | 0.915 ± 0.9
106 | NSLCSP | -1.31 ± 1.9
107 | LITLREVTYIFNWTFLNYLR | -0.305 ± 0.43
108 | LISPVQSNTSAMVCELSDPY | 0.56 ± 0.76
109 | ISWVPDAVNFFACMHW | 0.094 ± 0.51
110 | FFGVLNIPNFCVSMF | 0.645 ± 0.69
111 | TFGSVGYI | 0.116 ± 0.45
112 | YSLIVTRCC | -0.468 ± 0.41
113 | RCELMNIEFWVKHYGSSSGF | 1.64 ± 0.18
114 | AWKLRVFRDSAL | 0.608 ± 1.1
115 | SASEIPALSTTGSNGMDEVI | -0.249 ± 0.54
116 | SCATVPCKM | 0.53 ± 0.63
117 | YDFTDFPSPTFRYFVLIGNA | 0.333 ± 0.54
118 | YSSLRGWLC | inactive
119 | YAITRSAVICSNLALNMEC | 2.09 ± 0.23
120 | VSQCS | 0.238 ± 0.54
121 | QVRCAFVIRRSV | 0.143 ± 0.64
122 | FETYFEHYWGCVTYSSMFWS | 2.45 ± 0.14
123 | SCNVFGASWRLTVNDVWYKW | 0.651 ± 0.22
124 | MPKCSTLNTKVFRPMVWFSV | 1.43 ± 0.29
125 | KLQLVSLWQ | 2.77 ± 0.11
126 | VFLSIGTERMILLIVWHCLN | -0.34 ± 0.57
127 | FSFYS | -0.44 ± 0.65
128 | WGICAVLHLMTIIGLIRVER | inactive
129 | FYLLTGLFSQVGTLLFHWSR | -0.819 ± 0.51
130 | VYGVRAIR | 0.503 ± 0.61

Row | Substance | amyloid nucleation score
131 | CFEVHTHSESLL | -0.662 ± 0.72
132 | AHIISIKYLGSIFNKRRRFA | 0.874 ± 0.66
133 | CLNVYNLFMSLPGVAAPPMV | 6.9 ± 0.085
134 | QTLDRNNARSSDNGCSVGGA | -0.476 ± 1.9
135 | GNYSG | inactive
136 | ADYTQCRLYVM | -0.132 ± 0.21
137 | LLDWGFPG | -1.22 ± 1.6
138 | NNMSIWGMTVTEYLFITNMN | 0.643 ± 0.53
139 | QAYLKVQVWLDRRNSI | inactive
140 | ALPHSKFKAMVFRSLWRDRG | 0.51 ± 1.2
141 | LIVVSLGKMKLGYYFKFNVL | 0.286 ± 0.22
142 | KTLFMITYFGL | 0.85 ± 0.26
143 | SPLSYAI | 1.36 ± 0.58
144 | LNVTQYVKGSEWKWGSTTSP | 0.176 ± 0.52
145 | GSWNALRLRCVNVVRTGVMN | -0.496 ± 0.59
146 | TVTGIAKFHVVSQANY | -0.3 ± 0.98
147 | YINTGVLYFGFCGL | 7.117 ± 0.06
148 | LLCYMRGYPSCL | 0.512 ± 0.36
149 | HWLPHDVLSMWW | 1.29 ± 0.67
150 | LYNSRTWMIGIGSPAQIV | -0.731 ± 0.61
151 | FAESSVVSFHLCRQMFASTA | -0.88 ± 0.52
152 | WRSSHNDKMSY | -0.889 ± 0.46
153 | VQAAGYITLATVALWSTSMQ | 2.02 ± 0.31
154 | YKGMSAHFGLILFDCCLNGS | 7.516 ± 0.067
155 | WSLNERQNMLHLHRLTASLG | -0.088 ± 0.88
156 | TTALFWSRRPSFGDLYRGFN | 3.86 ± 0.082

Row | Substance | amyloid nucleation score
157 | NKDYMVVLTDFS | -0.326 ± 0.2
158 | CSQLLKLTQSAYLFFVNQDS | 0.676 ± 0.52
159 | DDNSMSDTHLL | 1.13 ± 0.25
160 | TFMLATDGV | 0.595 ± 0.69
161 | ISINQIMFAKGPYFERLAEN | 4.07 ± 0.096
162 | LCITRT | -0.521 ± 0.56
163 | TISSLLFI | -0.252 ± 0.47
164 | VSLMCVALYKQISTRI | 0.102 ± 0.51
165 | WWSYRKCRALNRRFQFFSYR | inactive
166 | KFSGWHLHGDLCRIHALEVW | 0.457 ± 0.27
167 | KYVIMLNLKSEL | 3.4 ± 0.091
168 | TYWQVARTSPSF | 0.547 ± 0.33
169 | INVIPDLD | -0.572 ± 0.5
170 | GHHLSVWRSNSCSCVWSITD | -0.184 ± 0.4
171 | WRGLPSNG | 0.024 ± 0.36
172 | VQIWAAELMTDRRK | 0.436 ± 1.2
173 | FVFLISAL | -0.617 ± 0.5
174 | SNNDFLTSPAFGLLTG | 0.066 ± 0.45
175 | YVLRSAMACLCDCVCESCGG | 2.71 ± 0.12
176 | VCVQILAASTWM | 0.844 ± 0.42
177 | RYRRFCFALVYMRKNI | -0.184 ± 0.42
